Measurements taken from US20160046721A1 (BEIJING SHENOGEN PHARMA GROUP, published 2016).
Residue numbers refer to the chain shown, from its start. Names may count otherwise. “And” between values parts separate entries of the source, which are not always exact repeats. Identical values can stand only once.

B1: SNGmB1 antibody (antibody, mouse IgG2b, kappa)
light: ETTVTQSPASLSMTIGEKVTIRCITSTDIDDDMNWYRKKPGQPPKLLISEGNTLRPGVPSRFSSSGYGTDFVFTIENMLSEDVADYYCLQSDNLPLTFGAGTKLELKRADAAPTVSIFPPSSEQLTSGGASVVCFLNNFYPKDINVKWKIDGSERQNGVLNSWTDQDSKDSTYSMSSTLTLTKDEYERHNSYTCEATHKTSTSPIVKSFNRNEC
heavy: QAYLQQSGAELVRPGASVKMSCKASGYTFTSHNMHWIKQTPRQGLEWIGAIHPVNGDTAYNQKFKGKATLTVDKSSSTAYLQLSSLTSEESAVYFCAREGYGSVDYWGQGTTLTVSSAKTTPPSVYPLAPGCGDTTGSSVTLGCLVKGYFPESVTVTWNSGSLSSSVHTFPALLQSGLYTMSSSVTVPSSTWPSQTVTCSVAHPASSTTVDKKLEPSGPISTINPCPPCKECHKCPAPNLEGGPSVFIFPPNIKDVLMISLTPKVTCVVVDVSEDDPDVQISWFVNNVEVHTAQTQTHREDYNSTIRVVSTLPIQHQDWMSGKEFKCKVNNKDLPSPIERTISKIKGLVRAPQVYILPPPAEQLSRKDVSLTCLVVGFNPGDISVEWTSNGHTEENYKDTAPVLDSDGSYFIYSKLNMKTSKWEKTDSFSCNVRHEGLKNYYLKKTISRSPGK
notes: Mouse monoclonal antibody from a hybridoma, mIgG2b; Several lots were tested; also called HBD-B1; hybridoma derived SNGmB1
B2: SNGHZD (C1L + C5H) (antibody, human IgG1, kappa, V domains shown)
VH: QVQLVQSGAEVKKPGASVKVSCKASGYTFTSHNMHWVRQAPGQGLEWIGAIHPVNGDTAYNQKFKGKATLTVDKSTSTAYLELSSLRSEDTAVYYCAREGYGSVDYWGQGTLVTVSS
VL: ETTVTQSPAFMSATPGDKVNISCITSTDIDDDMNWYQQKPGEAPILIISEGNTLRPGIPPRFSSSGYGTDFTLTINNIESEDAAYYFCLQSDNLPLTFGQGTKLEIKR
notes: Humanized antibody, human IgG1/kappa, expressed in 293E6 cells; also called humanized SNGmB1 variant C1L + C5H
B3: SNGHZD (C1L + C6H) (antibody, human IgG1, kappa, V domains shown)
VH: B2 VH with L81M
VL: B2 VL
notes: Humanized antibody, human IgG1/kappa; also called humanized SNGmB1 variant C1L + C6H
B4: SNGHZD (C2L + C5H) (antibody, human IgG1, kappa, V domains shown)
VH: B2 VH
VL: B2 VL with P44A
notes: Humanized antibody, human IgG1/kappa; also called humanized SNGmB1 variant C2L + C5H
B5: SNGHZD (C2L + C6H) (antibody, human IgG1, kappa, V domains shown)
VH: B2 VH with L81M
VL: B2 VL with P44A
notes: Humanized antibody, human IgG1/kappa; also called humanized SNGmB1 variant C2L + C6H
B6: SNGHZD (C3L + C5H) (antibody, human IgG1, kappa, V domains shown)
VH: B2 VH
VL: B2 VL with S64G
notes: Humanized antibody, human IgG1/kappa; also called humanized SNGmB1 variant C3L + C5H
B7: SNGHZD (C3L + C6H) (antibody, human IgG1, kappa, V domains shown)
VH: B2 VH with L81M
VL: B2 VL with S64G
notes: Humanized antibody, human IgG1/kappa; also called humanized SNGmB1 variant C3L + C6H
B8: SNGhB1 chimeric antibody (antibody, human IgG1, kappa)
light: ETTVTQSPASLSMTIGEKVTIRCITSTDIDDDMNWYRKKPGQPPKLLISEGNTLRPGVPSRFSSSGYGTDFVFTIENMLSEDVADYYCLQSDNLPLTFGAGTKLELKRTVAAPSVFIFPPSDEQLKSGTASVVCLLNNFYPREAKVQWKVDNALQSGNSQESVTEQDSKDSTYSLSSTLTLSKADYEKHKVYACEVTHQGLSSPVTKSFNRGEC
heavy: not shown
notes: Chimeric antibody: mouse V regions with human kappa and IgG1 constant regions; also called chimeric SNGmB1; SNGhB1(20111118)

Tests used:
[1] = target: T1, biotinylated GV27 peptide (human, biotinylated (site not stated)); test: competition ELISA: plate coated with hybridoma SNGmB1 (1 µg/ml), biotinylated GV27 added together with soluble SNGmB1, streptavidin-HRP
T1 construct: also called antigen (biotinylated GV27 peptide)
T1 peptide: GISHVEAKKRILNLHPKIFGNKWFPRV
Method: (§1) The antigen (biotinylated GV27 peptide) was added along with different amount of the competing mouse antibody, the ELISA plates were then allowed to incubate for equilibrium before wash. Streptavidin-HRP (Sigma, S2438, 1:5000) and TMB substrate (Biopanda, China) were added and OD450 was measured on a plate reader. IgG were tested in parallel as control antibody.

[2] = target: T2, Fc-LBD (fusion protein of Fc and ER-α36 ligand binding domain including the C-terminal 27 amino acids) (human); test: ELISA, plate coated with Fc-LBD at 1 ug/ml, SNGmB1 in 5-fold dilutions from 10 ug/ml, HRP anti-mouse IgG Fc
T2 construct: Expressed in E. coli BL21 (DE3); No linker is described; also called Fc-ER-α36 LBD; not shown: Fc fused to the N terminal of the LBD
T2 chain: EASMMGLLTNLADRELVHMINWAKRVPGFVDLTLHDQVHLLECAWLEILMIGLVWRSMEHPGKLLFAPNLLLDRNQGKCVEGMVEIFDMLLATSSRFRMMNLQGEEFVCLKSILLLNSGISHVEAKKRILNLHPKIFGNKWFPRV
Method: (§2) Five different proteins were used to coat the assay plate at 1 μg/ml.

[3] = target: T3, GV27 peptide (ER-α36 c-terminal 27 aa) (human); test: Biacore; table head says human ER-α36, analyte taken as the GV27 peptide of Example 5
T3 construct: also called 27 aa peptide (F domain); 27-amino acid peptide derived from the F domain of ER-α36
T3 peptide: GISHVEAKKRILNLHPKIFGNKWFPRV

[4] = target: T4, Fc-ER66 (fusion protein of Fc and ER-α66 ligand binding domain) (human, UniProt P03372 302-595, limits assumed); test: ELISA, plate coated with Fc-ER66 at 1 ug/ml, HRP anti-mouse IgG Fc
T4 construct: also called Fc-ER-α66 protein; not shown: Fc
T4 sequence (looked up): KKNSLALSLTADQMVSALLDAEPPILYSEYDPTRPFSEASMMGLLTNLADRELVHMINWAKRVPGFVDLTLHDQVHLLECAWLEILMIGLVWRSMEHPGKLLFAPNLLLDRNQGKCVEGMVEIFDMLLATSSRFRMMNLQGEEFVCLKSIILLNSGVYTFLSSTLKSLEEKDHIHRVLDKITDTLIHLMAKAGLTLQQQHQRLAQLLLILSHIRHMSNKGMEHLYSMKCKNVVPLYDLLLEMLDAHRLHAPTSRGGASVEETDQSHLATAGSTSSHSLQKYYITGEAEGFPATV
Method: as §2

[5] = target: T1, biotinylated GV27 peptide; test: competition ELISA: plate coated with humanized SNGmB1 ('hzdSNGmB1', 1 µg/ml), biotinylated GV27 added together with soluble SNGmB1, streptavidin-HRP
Method: as §1

[6] = target: T5, Fc-LBD-D27 (Fc-LBD with the C-terminal 27 amino acids deleted) (human, UniProt P03372 339-456); test: ELISA, plate coated with Fc-LBD-D27 at 1 ug/ml, HRP anti-mouse IgG Fc
T5 construct: also called Fc-LBD with 27 amino acids deleted; not shown: Fc
T5 chain: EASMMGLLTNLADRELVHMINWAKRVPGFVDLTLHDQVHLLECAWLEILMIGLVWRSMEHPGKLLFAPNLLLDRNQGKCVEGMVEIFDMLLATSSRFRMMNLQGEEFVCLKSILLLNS
Method: as §2

[7] = target: T3, GV27 peptide (ER-α36 c-terminal 27 aa); test: ELISA, plate coated with the 27-aa peptide at 1 ug/ml, SNGmB1 in 5-fold dilutions from 10 ug/ml, HRP anti-mouse IgG Fc
Method: as §2

[8] = target: T3, GV27 peptide (ER-α36 c-terminal 27 aa); test: Biacore, antibody captured on anti-mouse Fc, GV27 injected
[9] = target: T3, GV27 peptide (ER-α36 c-terminal 27 aa); test: ELISA on the coated 27-aa peptide, antibody in 5-fold dilutions from 10 ug/ml
[10] = target: T3, GV27 peptide (ER-α36 c-terminal 27 aa); test: as above
[11] = target: T1, biotinylated GV27 peptide; test: competition ELISA: plate coated with SNGhB1 (1 µg/ml), biotinylated GV27 added together with the soluble antibody, streptavidin-HRP; the sheet labels the soluble antibody SNGhB1, the legend paragraph 64 and paragraph 314 to paragraph 316 name SNGmB1
Method: as §1

Binder | koff [3] | kon [3] | Kd [3] | other results
B1 | 0.000129 s⁻¹ and 0.000319 s⁻¹ | 2.12e+06 M⁻¹ s⁻¹ and 1.76e+06 M⁻¹ s⁻¹ |  | IC50 (read off the curve) [1]: ~0.5 µg/mL; EC50 (read off the curve) [2]: ~0.05 µg/mL; binding result [4]: no binding (tested: 10 ug/ml); IC50 (read off the curve) [5]: ~0.5 µg/mL; binding result [6]: no binding (tested: 10 ug/ml); EC50 (read off the curve) [7]: ~0.6 µg/mL; Kd [8]: ~0.1 nM
B2 | 0.000122 s⁻¹ | 744000 M⁻¹ s⁻¹ | 0.164 nM | 
B3 | 0.000302 s⁻¹ | 2.89e+06 M⁻¹ s⁻¹ | 0.105 nM | EC50 (read off the curve) [9]: ~0.05 µg/mL
B4 | 0.000488 s⁻¹ | 3.46e+06 M⁻¹ s⁻¹ | 0.13 nM | EC50 (read off the curve) [10]: ~0.04 µg/mL
B5 | 0.000398 s⁻¹ | 1.28e+06 M⁻¹ s⁻¹ | 0.31 nM | 
B6 | 0.000356 s⁻¹ | 3.54e+06 M⁻¹ s⁻¹ | 0.1 nM | 
B7 | 0.00036 s⁻¹ | 1.33e+06 M⁻¹ s⁻¹ | 0.271 nM | 
B8 | 0.000283 s⁻¹ | 1.74e+06 M⁻¹ s⁻¹ | 0.163 nM | IC50 (read off the curve) [11]: ~0.5 µg/mL
